# Experimental data taken from the supplement of paper PMC10567573.
# B1: ZNF193 (parent)
# chain: QCIECGKSFNRHCNLIRHQKIHTV
# B2: WSB1 (parent)
# chain: DLKDDGNMMKVLRGHQNWVYSCAF
# Variants of: B1
# Test: protein stability index of a GFP-peptide fusion (GPS, HEK-293T) (PSI 1-6); higher = more stable
# Details: c terminus: a fixed tail appended
# 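Also: lentivirally expressed fusions sorted by FACS into six bins by GFP to DsRed ratio, PSI derived from sequencing read proportions per bin multiplied by bin number.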
row,Variant,protein stability index
1,QCIECGKSFNRHCNLIRHQKIQTV [H22Q],2.7
2,QCIECGKSFNRHCNLIRHQYIHTV [K20Y],2.2
3,QCIECGKSFNRHCNLIRHQTIHTV [K20T],2.63
4,QCIECGKSFNRHCNLIRHQEIHTV [K20E],3.29
5,QCIECGKSFNRHCNLIRHQVIHTV [K20V],2.66
6,QCIECGKSFNRHCNLIRHQHIHTV [K20H],2.9
7,QCIECGKSFNRHCNLIRHQPIHTV [K20P],2.7
8,QCIECGKSFNRHCNLIRHQIIHTV [K20I],2.2
9,QCIECGKSFNRHCNLIRHQDIHTV [K20D],2.83
10,QCIECGKSFNRHCNLIRHQGIHTV [K20G],2.38
11,QCIECGKSFNRHCNLIRHQRIHTV [K20R],3.4
12,QCIECGKSFNRHCNLIRHQQIHTV [K20Q],3.5
13,QCIECGKSFNRHCNLIRHQLIHTV [K20L],2.93
14,QCIECGKSFNRHCNLIRHQNIHTV [K20N],2.61
15,QCIECGKSFNRHCNLIRHQMIHTV [K20M],3.13
16,QCIECGKSFNRHCNLIRHQCIHTV [K20C],3.47
17,QCIECGKSFNRHCNLIRHQAIHTV [K20A],3.85
18,QCIECGKSFNRHCNLIRHQSIHTV [K20S],3.3
19,QCIECGKSFNRHCNLIRHQFIHTV [K20F],2.95
20,QCIECGKSFNRHCNLIRHQWIHTV [K20W],2.22

row,Variant,protein stability index
1,QCIECGKSFNRHCNLIRHDKIHTV [Q19D],2.03
2,QCIECGKSFNRHCNLIRHHKIHTV [Q19H],2.72
3,QCIECGKSFNRHCNLIRHSKIHTV [Q19S],3.46
4,QCIECGKSFNRHCNLIRHRKIHTV [Q19R],2.98
5,QCIECGKSFNRHCNLIRHTKIHTV [Q19T],2.79
6,QCIECGKSFNRHCNLIRHVKIHTV [Q19V],2.5
7,QCIECGKSFNRHCNLIRHEKIHTV [Q19E],3.73
8,QCIECGKSFNRHCNLIRHIKIHTV [Q19I],2.8
9,QCIECGKSFNRHCNLIRHAKIHTV [Q19A],2.84
10,QCIECGKSFNRHCNLIRHKKIHTV [Q19K],3.27
11,QCIECGKSFNRHCNLIRHYKIHTV [Q19Y],2.59
12,QCIECGKSFNRHCNLIRHPKIHTV [Q19P],1.99
13,QCIECGKSFNRHCNLIRHWKIHTV [Q19W],2.25
14,QCIECGKSFNRHCNLIRHFKIHTV [Q19F],2.73
15,QCIECGKSFNRHCNLIRHNKIHTV [Q19N],2.81
16,QCIECGKSFNRHCNLIRHCKIHTV [Q19C],3.78
17,QCIECGKSFNRHCNLIRHMKIHTV [Q19M],3.48
18,QCIECGKSFNRHCNLIRHLKIHTV [Q19L],2.75
19,QCIECGKSFNRHCNLIRHGKIHTV [Q19G],2.5

# Variants of: B2
# Test: as above
# Details: c terminus: a fixed tail appended
row,Variant,protein stability index
1,DRKDDGNMMKVLRGHQNWVYSCAF [L2R],2.05
2,DNKDDGNMMKVLRGHQNWVYSCAF [L2N],2.53
3,DFKDDGNMMKVLRGHQNWVYSCAF [L2F],1.59
4,DHKDDGNMMKVLRGHQNWVYSCAF [L2H],1.68
5,DYKDDGNMMKVLRGHQNWVYSCAF [L2Y],1.93
6,DTKDDGNMMKVLRGHQNWVYSCAF [L2T],2.08
7,DPKDDGNMMKVLRGHQNWVYSCAF [L2P],1.82
8,DMKDDGNMMKVLRGHQNWVYSCAF [L2M],1.65
9,DVKDDGNMMKVLRGHQNWVYSCAF [L2V],1.29
10,DGKDDGNMMKVLRGHQNWVYSCAF [L2G],1.91
11,DKKDDGNMMKVLRGHQNWVYSCAF [L2K],1.54
12,DDKDDGNMMKVLRGHQNWVYSCAF [L2D],2.39
13,DQKDDGNMMKVLRGHQNWVYSCAF [L2Q],1.83
14,DIKDDGNMMKVLRGHQNWVYSCAF [L2I],1.69
15,DEKDDGNMMKVLRGHQNWVYSCAF [L2E],1.95
16,DAKDDGNMMKVLRGHQNWVYSCAF [L2A],1.47
17,DSKDDGNMMKVLRGHQNWVYSCAF [L2S],1.34
18,DCKDDGNMMKVLRGHQNWVYSCAF [L2C],2.13
19,DLWDDGNMMKVLRGHQNWVYSCAF [K3W],2.49
20,DLDDDGNMMKVLRGHQNWVYSCAF [K3D],2.57
21,DLSDDGNMMKVLRGHQNWVYSCAF [K3S],1.77
22,DLQDDGNMMKVLRGHQNWVYSCAF [K3Q],1.37
23,DLLDDGNMMKVLRGHQNWVYSCAF [K3L],1.83
24,DLGDDGNMMKVLRGHQNWVYSCAF [K3G],2.54
25,DLCDDGNMMKVLRGHQNWVYSCAF [K3C],2.27
26,DLNDDGNMMKVLRGHQNWVYSCAF [K3N],1.43
27,DLPDDGNMMKVLRGHQNWVYSCAF [K3P],1.07
28,DLADDGNMMKVLRGHQNWVYSCAF [K3A],2.75

row,Variant,protein stability index
1,DLTDDGNMMKVLRGHQNWVYSCAF [K3T],2.65
2,DLMDDGNMMKVLRGHQNWVYSCAF [K3M],2.06
3,DLHDDGNMMKVLRGHQNWVYSCAF [K3H],1.93
4,DLEDDGNMMKVLRGHQNWVYSCAF [K3E],1.9
5,DLFDDGNMMKVLRGHQNWVYSCAF [K3F],2.12
6,DLYDDGNMMKVLRGHQNWVYSCAF [K3Y],1.84
7,DLRDDGNMMKVLRGHQNWVYSCAF [K3R],1.48
8,DLKGDGNMMKVLRGHQNWVYSCAF [D4G],1.16
9,DLKFDGNMMKVLRGHQNWVYSCAF [D4F],2.77
10,DLKHDGNMMKVLRGHQNWVYSCAF [D4H],1.66
11,DLKEDGNMMKVLRGHQNWVYSCAF [D4E],1.91
12,DLKCDGNMMKVLRGHQNWVYSCAF [D4C],2.88
13,NLKDDGNMMKVLRGHQNWVYSCAF [D1N],2.02
14,FLKDDGNMMKVLRGHQNWVYSCAF [D1F],2.47
15,HLKDDGNMMKVLRGHQNWVYSCAF [D1H],1.78
16,QLKDDGNMMKVLRGHQNWVYSCAF [D1Q],1.38
17,LLKDDGNMMKVLRGHQNWVYSCAF [D1L],2.52
18,GLKDDGNMMKVLRGHQNWVYSCAF [D1G],1.76
19,KLKDDGNMMKVLRGHQNWVYSCAF [D1K],2.65
20,ELKDDGNMMKVLRGHQNWVYSCAF [D1E],2.24
21,YLKDDGNMMKVLRGHQNWVYSCAF [D1Y],1.78
22,ALKDDGNMMKVLRGHQNWVYSCAF [D1A],1.62
23,TLKDDGNMMKVLRGHQNWVYSCAF [D1T],2.3
24,MLKDDGNMMKVLRGHQNWVYSCAF [D1M],2.04
25,VLKDDGNMMKVLRGHQNWVYSCAF [D1V],1.89
26,RLKDDGNMMKVLRGHQNWVYSCAF [D1R],1
27,PLKDDGNMMKVLRGHQNWVYSCAF [D1P],1.59
